Consider two molecules from patent US20190046600A1 (published 2019).

This test deals with Lactate dehydrogenase A [LDHA] (human, UniProt P00338 2-332). Briefly: cell-based or functional assay.

Square brackets hold non-standard residues; d marks the D form. Phe(4-guanidino) = N=C(N)Nc1ccc(C[C@H](N)C(=O)O)cc1

As to cyclo(PRGPRPVWW[Phe(4-guanidino)][Phe(4-guanidino)]WW[Phe(4-guanidino)][Phe(4-guanidino)]WW) [HILR-030 (cyclo-[Pro-Arg-Gly-Pro-Arg-Pro-Val-Trp-Trp-Gpa-Gpa-Trp-Trp-Gpa-Gpa-Trp-Trp])], the “IC50 of LDH activity (Abcam LDH activity kit, lysates of NCI-H460 cells treated for 24 or 96 h)” value is 22 µM. The figure for PRGPRPVWWRRWWRRWW (cyclic peptide (cyclo-[...])) [HILR-025 (cyclo-[Pro-Arg-Gly-Pro-Arg-Pro-Val-Trp-Trp-Arg-Arg-Trp-Trp-Arg-Arg-Trp-Trp])] is 16 µM.
